Data: the RNAGym collection of RNA variant scans (doi:10.7554/elife.80360)

B1: Twister Ribozyme (parent)
chain: AACACUGCCAAUGCCGGUCCCAAGCCCGGAUAAAAGUGGAGGGGGCGG

Variants of: B1
Test: self-cleavage, relative activity (ratio to wild type); higher = more cleavage; co-transcriptional

Compared with G44C G48C, G39A C46G is higher in self-cleavage: 0.225 for the first, 0.537 for the second.

Going from U37A C46A to G44U G45A, the self-cleavage falls from 0.844 to 0.825.

Compared with G44U G45U, A40U G44U is lower in self-cleavage: 0.922 for the first, 0.183 for the second.

Compared with G38U G39U, G39C G41U is higher in self-cleavage: 0.0892 for the first, 0.122 for the second.

First: A40U C46U
Second: A40U C46G
The self-cleavage of the first is higher: 0.163 for the first, 0.16 for the second.

Compared with G39U C46G, G39U C46A is higher in self-cleavage: 0.172 for the first, 0.19 for the second.

Going from G39U C46U to G45C C46G, the self-cleavage rises from 0.23 to 1.61.

Going from G45C C46A to G38A G42U, the self-cleavage falls from 0.564 to 0.133.

Compared with U37C G45U, G39C is lower in self-cleavage: 0.515 for the first, 0.158 for the second.

First: G39A
Second: G39U
The self-cleavage of the first is higher: 0.568 for the first, 0.232 for the second.

First: U37G G39A
Second: G42A G44U
The self-cleavage of the first is lower: 0.126 for the first, 0.173 for the second.

Going from G42A G44C to G42A G44A, the self-cleavage rises from 0.178 to 0.377.

First: G43U G45U
Second: G43U G45A
The self-cleavage of the first is lower: 0.358 for the first, 0.614 for the second.

Going from G42C G44A to G42C G44C, the self-cleavage falls from 0.396 to 0.17.

First: G42A G48A
Second: G42A G48U
The self-cleavage of the first is lower: 0.296 for the first, 0.397 for the second.

Compared with G45U G48A, G45U G48C is higher in self-cleavage: 0.757 for the first, 1.48 for the second.

First: G45U G48U
Second: G42C C46A
The self-cleavage of the first is higher: 0.757 for the first, 0.289 for the second.

First: G43C G44A
Second: G43C G44C
The self-cleavage of the first is lower: 0.469 for the first, 0.686 for the second.

Going from G44A G48A to G43A G47U, the self-cleavage falls from 0.927 to 0.175.

First: G38C G42A
Second: A40G G45A
The self-cleavage of the first is higher: 0.229 for the first, 0.146 for the second.

Compared with G44A G45C, G44A G45A is higher in self-cleavage: 0.535 for the first, 0.906 for the second.

Compared with G39C G47C, G39C G47U is lower in self-cleavage: 0.167 for the first, 0.163 for the second.

First: G41U C46G
Second: G41U C46U
The self-cleavage of the first is lower: 0.509 for the first, 0.68 for the second.

First: G42U
Second: G42A
The self-cleavage of the first is lower: 0.445 for the first, 0.516 for the second.

Going from G42C to U37G G48A, the self-cleavage rises from 0.622 to 0.844.

Compared with U37G G48C, G39A G47C is lower in self-cleavage: 0.843 for the first, 0.137 for the second.

Going from G39A G47U to U37A G43C, the self-cleavage falls from 0.238 to 0.149.

Compared with U37A G43A, C46G G47U is higher in self-cleavage: 0.145 for the first, 0.728 for the second.

Compared with C46G G47A, U37C G48C is higher in self-cleavage: 0.818 for the first, 0.843 for the second.

Going from U37C G48U to G38A G48C, the self-cleavage rises from 0.881 to 1.04.

Compared with G38A G48A, U37C G38C is lower in self-cleavage: 0.998 for the first, 0.742 for the second.

Compared with U37C G38U, G43C C46A is lower in self-cleavage: 0.516 for the first, 0.111 for the second.

Compared with G43C C46G, U37C is higher in self-cleavage: 0.174 for the first, 0.738 for the second.

Compared with U37G, G44C C46G is lower in self-cleavage: 0.861 for the first, 0.254 for the second.

First: G44C C46A
Second: G47C G48A
The self-cleavage of the first is lower: 0.28 for the first, 0.666 for the second.

Compared with G39A G41C, G39C G42C is higher in self-cleavage: 0.126 for the first, 0.129 for the second.

First: G39C G42A
Second: G39C G42U
The self-cleavage of the first is higher: 0.148 for the first, 0.144 for the second.

Compared with G41A G44A, G41A G44C is lower in self-cleavage: 0.483 for the first, 0.205 for the second.

Going from G41A G44U to A40C C46A, the self-cleavage falls from 0.228 to 0.202.

Going from G43U G48A to G43U G48C, the self-cleavage rises from 0.175 to 0.205.

First: G43U G48U
Second: G38A G39A
The self-cleavage of the first is lower: 0.198 for the first, 0.4 for the second.

Going from G38A G39C to G38A G39U, the self-cleavage falls from 0.175 to 0.142.

First: G45U C46A
Second: G42U G43U
The self-cleavage of the first is higher: 0.595 for the first, 0.127 for the second.

First: G42U G43C
Second: A40U G48A
The self-cleavage of the first is lower: 0.114 for the first, 0.159 for the second.

First: A40U G48U
Second: A40U G48C
The self-cleavage of the first is higher: 0.21 for the first, 0.209 for the second.

First: G43U C46G
Second: G43U C46A
The self-cleavage of the first is higher: 0.409 for the first, 0.271 for the second.

Compared with G43U C46U, G45A G47U is higher in self-cleavage: 0.426 for the first, 0.701 for the second.

First: G45A G47C
Second: G42C G43C
The self-cleavage of the first is higher: 0.539 for the first, 0.365 for the second.

First: G42C G43U
Second: G38A G47A
The self-cleavage of the first is lower: 0.137 for the first, 0.882 for the second.

First: G38U G45C
Second: G38U G45A
The self-cleavage of the first is lower: 0.407 for the first, 0.827 for the second.

First: G38U G45U
Second: A40U G42C
The self-cleavage of the first is higher: 0.707 for the first, 0.157 for the second.

Compared with A40U G42A, G42A G47U is higher in self-cleavage: 0.136 for the first, 0.325 for the second.

Going from G42A G47C to G44U G48U, the self-cleavage rises from 0.241 to 0.545.

Compared with G44U G48C, G38U G47U is higher in self-cleavage: 0.427 for the first, 0.813 for the second.

Compared with G38U G47C, U37A G45U is higher in self-cleavage: 0.228 for the first, 0.617 for the second.

Compared with U37A G45A, G42U C46U is lower in self-cleavage: 0.835 for the first, 0.383 for the second.

Compared with G42U C46G, A40G C46G is lower in self-cleavage: 0.309 for the first, 0.184 for the second.

First: G39U G47U
Second: G43A G45A
The self-cleavage of the first is lower: 0.187 for the first, 0.318 for the second.

Compared with G43A G45U, G41C C46A is lower in self-cleavage: 0.305 for the first, 0.254 for the second.

Compared with G41C C46G, G44A G47C is higher in self-cleavage: 0.286 for the first, 0.828 for the second.

Going from G44A G47U to G41U, the self-cleavage falls from 0.922 to 0.752.

Compared with G41C, G41A is higher in self-cleavage: 0.326 for the first, 0.665 for the second.

First: G41A G43U
Second: G41A G43C
The self-cleavage of the first is lower: 0.135 for the first, 0.14 for the second.

Going from G42C G47U to G42C G47A, the self-cleavage falls from 0.491 to 0.43.

Going from G42C G47C to G39U G45A, the self-cleavage falls from 0.467 to 0.151.

Compared with G39U G45U, G45U is higher in self-cleavage: 0.141 for the first, 0.902 for the second.

Going from G45A to G45C, the self-cleavage falls from 0.939 to 0.645.

Compared with G45U G47C, G45U G47U is lower in self-cleavage: 0.435 for the first, 0.386 for the second.

Compared with A40U G43U, G41U G47A is higher in self-cleavage: 0.0936 for the first, 0.349 for the second.

Going from A40U G47A to G39A G45C, the self-cleavage rises from 0.164 to 0.234.

First: G39A G45U
Second: G42U G48A
The self-cleavage of the first is lower: 0.231 for the first, 0.25 for the second.

First: G42U G48U
Second: G42U G47U
The self-cleavage of the first is higher: 0.451 for the first, 0.296 for the second.

Compared with G42U G47C, G41C G47U is lower in self-cleavage: 0.224 for the first, 0.149 for the second.

First: G41C G45U
Second: G39A G42U
The self-cleavage of the first is higher: 0.429 for the first, 0.164 for the second.

Compared with G39A G42A, C46U G48U is higher in self-cleavage: 0.146 for the first, 1.01 for the second.

Going from C46U G48A to G42A G45C, the self-cleavage falls from 0.885 to 0.187.

First: G42A G45U
Second: G45A C46A
The self-cleavage of the first is lower: 0.153 for the first, 0.714 for the second.

First: G45A C46G
Second: G45A C46U
The self-cleavage of the first is higher: 0.856 for the first, 0.848 for the second.

Compared with G41U G42A, A40G G48U is lower in self-cleavage: 0.136 for the first, 0.131 for the second.

Going from G38U G44U to G44U, the self-cleavage rises from 0.915 to 0.974.

Compared with G44A, G44C is higher in self-cleavage: 0.959 for the first, 0.971 for the second.

Compared with G44C G45A, G38A G41A is lower in self-cleavage: 0.762 for the first, 0.28 for the second.
